How the values were obtained:
[1] = Circulating form of PN's: FPLC of sera of injected mice; type: in vivo; conditions: 20 nmoles IV tail vein, nude mice, FPLC at 783 nm
Method: To see if the variable PN size could be translated into tunable pharmacokinetics, it was essential to first establish that PN’s circulated at PEG-determined, pre-injection dimensions. Mice were injected with PN’s and FPLC chromatograms of serum samples, taken at various times post injection ( Figures 2D, 2E and 2F ), compared with pre-injection PN samples. By using PN’s absorbing at 783 nm, chromatograms from the sera of injected mice reflect this PN, since there are no compounds in serum that absorb at this wavelength. […] Similarly, peaks for PN(783)6.1 ( Figure 2E ) and PN(783)4.3 ( Figure 2F ) where identical for pre-injection samples and for nanoprobes in the sera of injected mice. Thus, molecular weight of the PEG chosen determines PN dimensions in vitro and those dimensions are maintained after injection.
(§1) At the indicated time, 50 µl of blood was collected with microhematocrit capillary tube (Fisher Scientific) from the tail, and transferred to Eppendorf microcentrifuge tube with anticoagulant (EDTA) coating (Fisher Scientific). Tubes were centrifuged (5000 rpm for 5 min), and the supernatant was injected to the FPLC, a ÄKTA Purifier 10 with SuperdexTM 200 10/300GL column.
as §1, with “μl” for “µl”

[2] = Elimination by whole animal surface fluorescence imaging; type: in vivo; conditions: mice, after injection, n = 6
Method: Surface fluorescence images for representative animals are shown and total surface fluorescence is quantified in bar graphs to the right of the image. […] The pharmacokinetics and biodistributions of these PN’s is further analyzed below.
Figure 3 Role PEG in determining elimination by surface fluorescence imaging. A) Animals were injected with unPEGylated peptide and imaged at the times indicated. Bar graph gives whole animal surface fluorescence determined as means and standard deviations, n = 6.
(§2) A Kodak FX multispectral imaging system was used (Carestream Molecular Imaging, Rochester, NY). Excitation at multiple wavelengths (620, 650, 690, 710, 720, 730, 750 and 760 nm) with the emission at 830 nm was setup for IR-783 spectrum; Excitation at multiple wavelengths (420, 440, 460, 480, 510, 520, 530, and 540 nm) with the emission at 600 nm was setup for Cy3 spectrum; Excitation at multiple wavelengths (450, 470, 510, 520, 530, 540, 550, 570, and 590 nm) with the emission at 700 nm was setup for mCherry; with manufacturer’s software to separate (unmix) the IR-783 spectrum, Cy3 spectrum, or mCherry spectrum from skin autofluorescence and chlorophyll fluorescence from food. X-ray images were taken after fluorescence images. […]
as §2, with “Whole animal surface fluorescence imaging: All animal experiments in this work were approved by the Institutional Review Committee of the Massachusetts General Hospital. […]” for “A Kodak FX multispectral imaging system was used (Carestream Molecular Imaging, Rochester, NY).”

mCherry/HT29 cells = experiment: Confocal microscopy of mCherry/HT29 tumor sections; type: in vivo, nude mice; conditions: tumor collected 48 h post IV injection
Method: With skin removed, an overlay of tumor mCherry (green) and PN(545)10.0 (purple) gave a white superimposition. To determine the cells responsible for the accumulation of PN(783)10.0 seen with surface fluorescence ( Figure 5C ), we employed confocal microscopy of mCherry/HT29 tumor sections ( Figure 5D ).
The mCherry-HT-29 tumor sample was collected at 48 h post IV injection with PN(497)10.0, and then cryosectioned with thickness of 5 µm. The tumor section was fixed with 4% PFA, mounted with 90% glycerol/10% PBS (at pH 8.5 for best fluorescein fluorescence), and stained with DAPI. Confocal imaging was performed on a Zeiss LSM510 laser scanning confocal microscope (Zeiss Axiophot, Carl Zeiss, Jena, Germany). A 405 nm diode Laser, 488 nm argon laser, and 561 nm diode laser were used for the excitation of DAPI, fluorescein, and mCherry, respectively. A primary dichroic HFT 405/488/561 was used in combination with an LP420 emission filter for DAPI, BP505-530 for fluorescein, and LP575 for mCherry. Images were analyzed with ImageJ64.
Confocal imaging: The mCherry-HT-29 tumor sample was collected at 48 h post IV injection with PN(497)10.0, and then cryosectioned with thickness of 5 µm. The tumor section was fixed with 4% PFA, mounted with 90% glycerol/10% PBS (at pH 8.5 for best fluorescein fluorescence), and stained with DAPI. […] Images were analyzed with ImageJ64.

Row | Substance | Circulating size: FPLC peaks of serum samples after injection versus pre-injection sample [1] | Elimination seen by whole animal surface fluorescence [2] | Cellular localisation in tumor sections (mCherry/HT29 cells)
1 | (DOTA)Lys(PEG 5 kDa)-Cys(IR-783) [PN(783)4.3, PEG-like Nanoprobe: 5 kDa PEG, IR-783 fluorochrome, DOTA peptide] | identical | bladder accumulation (arrow) at only 20 minutes post injection | 
2 | (DOTA)Lys(PEG 30 kDa)-Cys(Fl) [PN(497)10.0, PEG-like Nanoprobe: 30 kDa PEG, fluorescein, DOTA peptide] |  |  | seen in mCherry/HT29 cells
3 | (DOTA)Lys(PEG 30 kDa)-Cys(IR-783) [PN(783)10.0, PEG-like Nanoprobe: 30 kDa PEG, IR-783 fluorochrome, DOTA peptide] | circulates at its pre-injection size | excellent elimination at 48 h | 

— article PMC4004541, “PEG-Like Nanoprobes: Multimodal, Pharmacokinetically and Optically Tunable Nanomaterials” (PLoS ONE, 2014)
